# Results as given in the nanobody polyreactivity screen of Harvey et al. (2022).
# Test: yeast display, Sf9 membrane polyspecificity reagent, FACS + sequencing; frameworks hold sequencing errors
# Method in brief: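 Nanobodies from a synthetic yeast display library (Saccharomyces cerevisiae BJ5465), induced 36–48 hours with galactose, were stained 1 hour at 4 °C with 10% biotinylated, detergent-solubilized Sf9 membrane reagent, enriched on streptavidin microbeads, then FACS-sorted. Anti-HA (expression) and streptavidin (reagent binding) fluorescence set low and high (top ~1%) gates. Polyreactivity labels come from the gate of origin. Genes were colony-PCR amplified, MiSeq 2 × 250 sequenced and filtered by CDR length.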
row,Sequence,polyreactivity (PSR sort gate)
1,QVQLVESGGGLVQAGGSLRLSCAASGLTLLKNAMGWYRQAPGKEREYADSVKGRFTISRDNAKNTVYLQMNSLKPEDTAVYYCAKDVNGGYFYYQYPAQYYYWGQGTQVTVSS,low polyreactivity
2,QVQLVESGGGLVQAGGSLRLSCAASGFTFIYYAMGWYRQAPGKERELVAAISASGGSTYYADSVKGRFTISRDNSKNTVYLQMNSLKPEDTAVYYCDAYRVWYRGYPMGYWGQGTQVTVSS,high polyreactivity
3,QVQLVESGGGLVQAGGSLRLSCAASGSIFLVYAMGWYRQAPGKERELVAVIRWRDGSTYYADSVKGRFTISRDNAMNTVYLQMNSLKPEDTAVYYCAADGVIFEYDYWGQGTQVTVSS,low polyreactivity
4,QVQLVESGGGLVQAGASLRLSCADSGIIFQVYAMGWYRQAPGKERELVAAISDDGSTNYADSVKGRFTISRDNAKNTVYLQMNSLKPEDTAVYYCAKESWGRLYYRYDYWGQGTQVTVSS,low polyreactivity
5,QVQLVESGGGLVQAGGSLRLSCAASGRTFGKYAMGWYRQAPGKERELVATISLSGGSTYYADSVKGRFTISRDNAKNTVYLQMNSLKPEDTAVYYCAARVYTYYYDLHKRYYWGQGTQVTVSS,high polyreactivity
6,QVQLVESGGGLVQAGGSLRLSCAASGRTFYANVMGWYRQAPGKERELVAAITSGGSSYYADSVKGRFTISRDTAKNTVYLQMNSLKPDDTAVYYCAAGSNLNGVWFDYWGQGTQVTVSS,low polyreactivity
7,QVQHVESAGGLVQAGGILRLSCAASGRIFYPYAMGWYRQAPGKERELVAAISSSGGSTYYADSVKGRFTISRDNAKNTVSLQMNSLKPEDTAFYYCNKDFQYYPRIFGYWGQGTQVTVSS,high polyreactivity
8,QGQRVESGGGLVQAGGSLLLSCAASGLTFAKYAMGWDRQAPGKERELVSTITWSGATTYYADSVKGRFTISRDYAKNTVYLQMNSLKPEDTAVYYCIADLPVYVDYIIGGYGYWGQGTQVTVSS,low polyreactivity
9,QVQLVESGGGLVQAGGILRLSCAASGSIVVGYAMGWYRPAPGKERELVGAITGSGTRTDYADSVKGRFTISRDNAKNPVYLHMNSLKPEDTAVYNCAAPMSYKNVKYDYWGQGTQVTVSS,low polyreactivity
10,QVQLQESGGGLVQASGSIFHEPNMGWYRQAPGKERELVAGISSGANTYYADSVKGRFTISRDNAKNTVYLQMNSVKPEDTAVYHCAVVVHLYTDLRNWGQDTQVTVSS,high polyreactivity
11,QVQLVESGGGLVQAGGSLRLSCAAYGSTLTRNAMGWYRQAPGKERELVATITATGGSTYYADSVKGRFTISRDNAKNTVYLQMTSLKPEDTAVYYCNKVYREYSLSYWSPTHWAYYYWGQGTQVTVSS,low polyreactivity
12,QLQLVESGGGLVQAGGSLRLSCASSGRIFRYNAMGWYRQAPGKERELVAVISGSGGSTYYADSVKGRFTISRDNAKNTVYLQMNSLKPEDTAVYYCAAQFHVSWYNYWGQGTQVTVSS,low polyreactivity
13,QVQLVESGGGLVQAGGSLRLSCAASGSIFWGNAMGWYRQAPGKERELVAAIDWSGGSTYYADSVKGRFTISRDNAKNTVYLQMNSLKPEDTAVYYCAADYLGGGDVGFDYWGQGTQVTVSS,low polyreactivity
14,QVQLVESAGGLVHARGSLRLSCAASGRIFERNAMGSYRQAPGKERELVARITSGGGTYYADSVKGRFTISRDNAKNTVYLQMNSLKPEDTAVYYCAVQYLYRKYRRYDYWGLGTQVTVSS,high polyreactivity
15,QVQLVESGGGLVQAGGSLRLCCAASGSTFYYYAMGWYRQAPGKEREFVASISSRGTSTYYADSVKGRFTISRDNAKNTVYLQLNSLKPEDTAVYYCAARGWGPTRAYDYSGQGTQVTVSS,high polyreactivity
16,QVQVVESGGGLVQAGGSLRLSCAASGSTLSKNAMGWYRQAPGKERELVAAITLRGGSTSFADSVKGRFTISRDNAMNTVYLHMNSLKPEDTAVYYCNAVSKFDYGYWVQGTQVTVSS,high polyreactivity
17,QVQLVESGGGLVQAGGSLRLSCAASGRTFRWYAMGWYRQAPGKERELVAAITSDGRTYYADSVKGRFTISRDNAKNTVYLQMNSLNPEDTAVYYCNAACRYAFPFGYNYWGQGTQVTVSS,high polyreactivity
18,QVQLVESGGGLFQAGGSLRLSCAASGFIFSYNAMGWYRQAPGKERELVAAISSSGGTTYYADSVKGRFTISRDNAKNTVYLQMNSLKPEDTAVYYCNARWHAEYDYWGQGTQVTVSA,low polyreactivity
19,QVQLVESGGGLVQAGGSLRLSCAASGLIFTKAMGWYRQAPGKEREFVAAINSSGGSTYADSVKGRFTISRDNAKNTVYLQMNSLKPEDTAVYYCAARVNYLYEYWGQGTQVTVSS,low polyreactivity
20,QVQLVESGGGLVQAGGSLRLSCAASGSTFHTYTMGWYRPAPGKERELVAGISRSGGSTYYAESVKGRFTISRDNAKNTVYLQMNSLKPEATAVYYCNALSSKTDTYDYWGQGTQVTVSS,high polyreactivity
21,QVQLVESGGGLVQAGGSLRLSCAASGYIFDRYAMGWSRPAPGKERELVAAISGRGGSTYYADSVKGRFTISLDNAKNTVYLQMNSLKPEDTAVYYCNALVQGKEYYWGQGTQVTVSS,high polyreactivity
22,QVQLVESGGGLVQAGGSLRLSCAASGSTFSRNAMGWSRQAPGKERELVAAISWRGGRTYYADSVKGRFTISRDNAKNTVYLQMNSLKPEDTAVYYCAAEHKYRYDYWGQGTQVTVSS,low polyreactivity

row,Sequence,polyreactivity (PSR sort gate)
1,QVQLVESGGGLVQAGGSLRLSCDASGITFWGYVMGWYRQAPGKERELVAAISSSGGRTYYADSVKGRFTISLDNAKNTVYLQMNSLKPEDTAVYYCAARFLYANRYSVDYDYCGQGTQVTVSS,high polyreactivity
2,QVQLVESGGGLVQAGGSLRLSCAASGRIFPWYAMGWYRQAPGKEREVVAAIRWRGGGTYYADSVKGRFTISRDNAKNTVYLQMNSLKPEDTAVYYCAARRPANGMGYWGQGTQVTVSS,high polyreactivity
3,QVQLVESGGGLVQAGGSLRLSCAASGRIFERYPMGWYRQAPGKERELVAGISISGGGTYYADSVKGRFTISRDTAKNTVYLQRNSLKPEDTAVSYCAATFPREEYGYWGQGTLVTVSS,low polyreactivity
4,QVQLVESGRGLLQAGGSLRISCAASGFTFKGNAMGWYRQAPGKESELVAAITTSGGSTYYADSVKWRFTISRDNAKNTVYLQMNSLKPEDTAVYYCNAYFIYEGGWYYNAQYDYWGQGTQVTVSS,low polyreactivity
5,QVQLEESGGGLVQAGGSLRLSCAASGLTFVQYTMGWYRQAPGKERELVAVITSASSTNYADSVKGRFTISRDNAKNTVYLQMNSLKPEDPAVYYCNATTYPYYTNSYQYEYWGQGTQVTVSS,low polyreactivity
6,QVQLVESGGGLVQAGGSLRLSCAASGFIFYDYAMGWYRQAPGKERELVAVITSGGSTYYADSVKGRFTISRDNAKNTVYLQMNSLKPEDTAVYYCNADWVFTWYDYPNDKYDYWGQGTQVTVSS,low polyreactivity
7,QVQLVESGGGLVQAGGSLRLSCAASGSTFSTNAMGWYRQAPGKERELVAAISRSGGSTYYADSVKGRFTISRDNAKNTVYLQMNSLKPEDTAVYYCARYSYRGTNVRYDYWGQGTQVTVSS,high polyreactivity
8,QVQLVESGGGLVQAGGSLRLSCAASGSIFAYYAMGWYRQAPGKERELVAYISRSGGITYYADSVKGRFTLSRDNAKNTVYLQMNSLKPVDTAVDYCAARYSVRPISIYPFDFGYWGQGTQVTVSS,low polyreactivity
9,QVQLVESGGGLVQAGGSLRLICAASGYIFYDYAMGWYRQAPGKERQLVATITSGGRTYADSVKGRFTISRDNAKNTVYLQMNSLKPEDTAVYYCAVDQYGAMDYWGQGTQVTVSS,low polyreactivity
10,QVQLVESGGGLVQAGGSLSLSCAASGRIFYYNAMGWYRQAPGKERELVAAITRGGSTYYADSVKGRFTISRDNAKNTVYLQMNSLKPEDTAVYYCAADRTGYSRYTTSVKGQRYYYWGQGTQVTVSS,high polyreactivity
11,QVQLVESGGGLVQAGGSLRLSCAASGNTFFDYDMGWYRQAPGKERELVATITNSGTSTYYTDSVKGRFTISRDNAKNTVYLQMNSLKPEDTAVYYCAADLFYAVLGNEYDYWGQGTQVTVSS,high polyreactivity
12,QVQLVESGGGLVQAGGSLRLSCAASGLILVPNTMGWYRQAPGKERELVAAISYSGGGTYYADSVKGRFTISRDNANNTVYLQMNSLKPEDTAVYYCAAYVKRESAPYGYWGQGTLVTVSS,low polyreactivity
13,QVQLVESGGGLVHAGGSLRLSCAASGSIFYNYAKGWYRQAPGKERELVAAIDSGGSTYYADSVKGRFTISRDNAKNTVYLQMNSLKPEDSAVYSCAADTYWFVYYGYDYWGQGTQVTVSS,low polyreactivity
14,QVQLVESGGGLVQAGGSLRLSCAASGIIFNTYVMGWYRQAPGKERELVAAISRRGGSTYYADSVKGRFTISRDNAKNTVYLQMNSLKPEDTAVYYCAADVLYQQAGSYYWGQGTQVTVSS,high polyreactivity
15,QVQLVESGGGLVQAAGSLRLSSAPSVSSFRNKAMGWYRQAPGKERELVASISSSGDSTYADSVKGRFTISRDNAKNTVSLQMNSLKPEDTAVYYCARDYLSPYAVDYWGQGTQVTVSS,low polyreactivity
16,QVQLVESGGGLVQAGGSLRLSCAASGLIFYRYTMGWYRQAPGKERELVAAISWRGTRTYYADSVKGRFTISRDNAKNTVYLQMNSLKPEDTAVYYCTAGYVRRYSPSSSWRYDYWGQGTQVTVSS,high polyreactivity
17,QVQLVESGGGLVQAGGSLRLSCAPSGRIFNAYAMGWYRQAPGKERELVAAITVSGTRTYYADSVKGRFTISRDNAKNTVYLQMNSLKPEDSAVYYCNAGRGGVLDYGYWGQGTQVTVSS,high polyreactivity
18,QVQLVESGGGLVQAGGSLRLSCAASGRTIPIYAMGWYRQAPGKERELVAAITRGGRTNYADSVKGRFTISRDNAKNTVYLQMNSLKPEDTAVYYCAARTYGTYLYAEYDYWGQGTQVTVSS,high polyreactivity
19,QVQLVESGGGLVQAGRSLRLSCASSGSTFRVYDMGWYRQAPGNERELVASISYSVGSTYYADSVKGRFTISRDNAKNTVYLQMITLKPEDTEVYFCAARPSYQPSSLARYDYWGQGTQVSVSS,low polyreactivity
20,QVQLVESGGGLVQAGGSLRLSCAASGSTFNAYAMGWYRQAPGKERELVADISFSGGTYYADSVKGRFTISRDNAKNTVYLQMNSLKPEDTAVYYCSAESRWRSSAGGYYYWGQGTQVTVSS,low polyreactivity
21,QVQLVESGGGLVQAGGSLRLSCAASGTFKYYAMGWYIQAPGEERELVAAISRGGRTNYADSVKGRFTISRDNAKNTVYLQMTSLKPEDTAVYYCAARKADTVFKFEYWGQGTQVTVSS,high polyreactivity
